Results published in patent US20240092930A1.

Columns and labels:
[1] = molecular target: human Trop-2 on the surface of cells (CHO/Trop-2 cells; BxPC-3 cells; NCI-N87 cells) (human) (UniProt P09758); assay: cell-based or functional assay
[2] = molecular target: human Trop-2 on the surface of cells (CHO/Trop-2 cells; BxPC-3 cells; NCI-N87 cells) (human) (UniProt P09758); assay: FACS, BxPC cells, antibody left on the surface, control kept at 4° C.
[3] = molecular target: human Trop-2 on the surface of cells (CHO/Trop-2 cells; BxPC-3 cells; NCI-N87 cells) (human) (UniProt P09758); assay: FACS, BxPC cells, antibody left on the surface after 3 h at 37° C.

Sequence of human Trop-2 on the surface of cells (CHO/Trop-2 cells; BxPC-3 cells; NCI-N87 cells) (human) (P09758 27-323): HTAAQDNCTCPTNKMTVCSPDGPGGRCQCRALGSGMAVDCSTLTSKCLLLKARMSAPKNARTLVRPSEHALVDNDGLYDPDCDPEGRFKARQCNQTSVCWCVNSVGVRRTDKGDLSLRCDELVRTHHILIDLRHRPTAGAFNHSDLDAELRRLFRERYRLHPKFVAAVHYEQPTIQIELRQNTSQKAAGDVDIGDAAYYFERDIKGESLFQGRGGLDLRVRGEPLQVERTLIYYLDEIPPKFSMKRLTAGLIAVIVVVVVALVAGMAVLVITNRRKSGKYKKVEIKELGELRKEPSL

IgG1 isotype control antibody NC-IgG1 showed an Internalization percentage (%), 3 h, BxPC cells, FACS [1] of 3.29%, an Internalization percentage, 1 h, BXPC-3 cells, FACS [1] of -63% and an Internalization percentage, 1 h, NCI-N87 cells, FACS [1] of -95%. It also gave a Fluorescence intensity (MFI), 4° C. [2] of 739 MFI and a Fluorescence intensity (MFI), 37° C. [3] of 715 MFI.
